Target: T1, CD19 expressed on Hela cells (stable cell line Hela-CD19) (human, UniProt P15391 20-556)
T1 sequence (looked up): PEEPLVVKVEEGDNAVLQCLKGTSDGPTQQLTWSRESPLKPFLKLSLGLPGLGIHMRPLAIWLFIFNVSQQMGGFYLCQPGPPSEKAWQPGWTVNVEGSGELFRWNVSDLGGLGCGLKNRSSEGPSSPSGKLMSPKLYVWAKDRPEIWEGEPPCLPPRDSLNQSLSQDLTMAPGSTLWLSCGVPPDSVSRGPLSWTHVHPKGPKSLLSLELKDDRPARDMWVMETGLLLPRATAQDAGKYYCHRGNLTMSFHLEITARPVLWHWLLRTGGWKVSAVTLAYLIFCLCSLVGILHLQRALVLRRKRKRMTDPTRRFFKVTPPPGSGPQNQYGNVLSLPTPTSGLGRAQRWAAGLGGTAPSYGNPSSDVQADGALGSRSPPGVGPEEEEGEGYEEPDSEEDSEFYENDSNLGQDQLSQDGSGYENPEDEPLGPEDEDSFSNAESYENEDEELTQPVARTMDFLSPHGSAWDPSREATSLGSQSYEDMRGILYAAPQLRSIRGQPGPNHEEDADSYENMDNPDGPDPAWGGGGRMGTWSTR
Assay: cell-based or functional assay

B1: Humanized CD19-4-1BB-CD3-CAR protein (CD8 leader sequence-CD19 scFv (VL-Linker-VH)-CD8 hinge-CD8 TM-41BB-CD3-zeta), expressed on DNT cells (other)
chain: DIQMTQSPSSLSASVGDRVTITCRASQDISKYLNWYQQKPGKAPKLLIYHTSRLHSGVPSRFSGSGSGTDFTLTISSLQPEDFATYYCQQGNTLPYTFGGGTKVEIKGSTSGSGKPGSGEGSTKGQVQLQESGPGLVKPSETLSLTCTVSGGSLPDYGVSWIRQPPGKGLEWIGVIWGSETTYYNSALKSRVTISVDTSKNQFSLKLSSVTAADTAVYYCAKHYYYGGSYAMDYWGQGTLVTVSSTTTPAPRPPTPAPTIASQPLSLRPEACRPAAGGAVHTRGLDFACDIYIWAPLAGTCGVLLLSLVITLYCKRGRKKLLYIFKQPFMRPVQTTQEEDGCSCRFPEEEEGGCELRVKFSRSADAPAYKQGQNQLYNELNLGRREEYDVLDKRRGRDPEMGGKPRRKNPQEGLYNELQKDKMAEAYSEIGMKGERRRGKGHDGLYQGLSTATKDTYDALHMQALPPR
  specific killing of Hela-CD19 by CAR19-DNT cells on day 8 of culture (RTCA, effector-target ratio 2:1, 18 h): 98.5%
  specific killing of Hela-CD19 by CAR19-DNT cells on day 13 of culture (RTCA, effector-target ratio 2:1, 18 h): 98.1%

From patent publication US20230279107A1 (ZHEJIANG RUIJIAMEI BIOTECH, published 2023)
